In patent US20250283063, “NOVEL CRISPR-CAS12I SYSTEMS AND USES THEREOF” (HUIDAGENE THERAPEUTICS (SINGAPORE) PTE. LTD., published 2025) one finds activity data, which are given here for one molecule.

One data set has as its target T1, hfCas12Max (v6.3) (N243R,E336R,D892R).
T1 chain: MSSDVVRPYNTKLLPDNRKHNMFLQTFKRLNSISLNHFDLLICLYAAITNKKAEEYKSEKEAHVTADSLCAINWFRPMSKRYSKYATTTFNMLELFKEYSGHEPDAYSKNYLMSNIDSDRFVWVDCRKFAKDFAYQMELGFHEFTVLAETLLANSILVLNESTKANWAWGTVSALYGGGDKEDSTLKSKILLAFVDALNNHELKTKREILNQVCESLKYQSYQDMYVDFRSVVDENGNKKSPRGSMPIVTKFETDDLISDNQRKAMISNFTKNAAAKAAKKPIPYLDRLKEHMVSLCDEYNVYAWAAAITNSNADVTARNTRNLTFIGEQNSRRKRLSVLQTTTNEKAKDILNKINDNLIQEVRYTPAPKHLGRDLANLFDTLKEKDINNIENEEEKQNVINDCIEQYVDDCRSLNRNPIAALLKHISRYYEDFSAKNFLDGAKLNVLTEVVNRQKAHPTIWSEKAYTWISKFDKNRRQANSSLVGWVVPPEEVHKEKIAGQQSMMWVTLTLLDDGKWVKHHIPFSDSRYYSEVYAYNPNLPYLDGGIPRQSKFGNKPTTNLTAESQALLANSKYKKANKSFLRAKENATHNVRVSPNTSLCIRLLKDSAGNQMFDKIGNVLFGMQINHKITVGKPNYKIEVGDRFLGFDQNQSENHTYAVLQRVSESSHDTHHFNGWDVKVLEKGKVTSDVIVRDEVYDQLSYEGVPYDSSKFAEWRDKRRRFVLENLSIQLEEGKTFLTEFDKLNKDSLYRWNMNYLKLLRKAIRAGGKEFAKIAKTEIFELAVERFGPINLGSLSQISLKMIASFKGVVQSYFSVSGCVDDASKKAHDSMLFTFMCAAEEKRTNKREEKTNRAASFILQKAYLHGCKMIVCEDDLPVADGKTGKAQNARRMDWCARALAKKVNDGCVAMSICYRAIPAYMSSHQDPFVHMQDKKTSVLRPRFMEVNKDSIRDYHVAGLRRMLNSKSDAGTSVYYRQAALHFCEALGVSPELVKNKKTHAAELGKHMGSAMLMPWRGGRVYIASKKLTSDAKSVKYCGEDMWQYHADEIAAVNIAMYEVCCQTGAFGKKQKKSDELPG
The data set is described as follows: cell_activity; PAM TTTG; OT-1. The settings on record: tags: NLS. As for the experimental part:
(§1) HEK293T cells were cultured in 24-well tissue culture plates according to standard methods for 12 hours, before the reporter and expression plasmids were co-transfected into the cells using standard polyethyleneimine (PEI) transfection. The transfected cells were then cultured at 37° C. under 5% CO₂ for 48 hours. Then the cultured cells were analyzed by flow cytometry for BFP, EGFP, and mCherry fluorescent signals. A “blank” control group was also set up, where only the reporter plasmid was transfected, and no expression plasmid was introduced.
(§2) A dual plasmid fluorescent reporter system for evaluation of off-target dsDNA cleavage activity (off-target reporter system; referring to “Off-Target Reporter” in FIG. 1B) was established, which was similar to the dual plasmid fluorescent reporter system in Example 6 for evaluation of (on-target) dsDNA cleavage activity, except that the insertion sequence of the EGxxxxFP coding sequence contains an TTR off-target protospacer sequence (one of SEQ ID NOs: 127-129) containing one or more mismatches (bold, underlined) with a TTR-targeting spacer sequence (SEQ ID NO: 130) in the gRNA, rather than containing a TTR on-target protospacer sequence (SEQ ID NO: 130; which is the same as SEQ ID NO: 107 in Example 5); DR-T1 sequence (SEQ ID NO: 451) was used. To save drafting, the on-target protospacer sequence/spacer sequence in Table 7 refer to both the protospacer sequence (a DNA sequence) and the corresponding spacer sequence (an RNA sequence) with any “T” in the sequence when referring to a protospacer sequences standing for “T” and when referring to a such spacer sequence standing for “U”, although the assigned SEQ ID NO: 130 in the sequence listing is annotated as DNA.

A further data set deals with T2, xCas12i v6.1 (N243R,E336R,V880R).
T2 chain: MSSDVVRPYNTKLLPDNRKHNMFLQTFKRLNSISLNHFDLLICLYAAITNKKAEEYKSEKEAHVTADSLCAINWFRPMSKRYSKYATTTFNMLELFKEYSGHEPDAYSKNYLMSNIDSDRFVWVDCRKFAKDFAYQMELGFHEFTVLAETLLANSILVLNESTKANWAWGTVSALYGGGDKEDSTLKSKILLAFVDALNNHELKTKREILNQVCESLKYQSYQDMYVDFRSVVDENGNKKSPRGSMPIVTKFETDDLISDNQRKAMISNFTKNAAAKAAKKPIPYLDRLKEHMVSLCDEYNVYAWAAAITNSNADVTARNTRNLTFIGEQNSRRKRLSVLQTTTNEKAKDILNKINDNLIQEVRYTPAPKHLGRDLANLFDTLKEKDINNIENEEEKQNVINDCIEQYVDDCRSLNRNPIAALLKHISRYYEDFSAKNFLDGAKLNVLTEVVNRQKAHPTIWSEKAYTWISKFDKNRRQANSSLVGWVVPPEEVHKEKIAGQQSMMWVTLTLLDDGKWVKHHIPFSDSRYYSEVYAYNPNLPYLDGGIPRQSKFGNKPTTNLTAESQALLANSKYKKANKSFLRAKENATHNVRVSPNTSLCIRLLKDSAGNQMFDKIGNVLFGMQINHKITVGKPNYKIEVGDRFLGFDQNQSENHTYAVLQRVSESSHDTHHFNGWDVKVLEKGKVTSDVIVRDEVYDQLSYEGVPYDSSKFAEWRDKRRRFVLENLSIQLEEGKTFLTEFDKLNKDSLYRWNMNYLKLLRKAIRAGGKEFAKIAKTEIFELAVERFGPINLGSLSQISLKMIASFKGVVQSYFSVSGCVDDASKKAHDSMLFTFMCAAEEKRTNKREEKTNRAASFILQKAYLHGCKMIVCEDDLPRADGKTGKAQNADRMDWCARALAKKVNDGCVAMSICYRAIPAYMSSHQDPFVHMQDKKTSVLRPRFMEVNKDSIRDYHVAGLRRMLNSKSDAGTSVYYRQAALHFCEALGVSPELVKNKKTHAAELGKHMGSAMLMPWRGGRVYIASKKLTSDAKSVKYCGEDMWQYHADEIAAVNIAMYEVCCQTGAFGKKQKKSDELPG
As to the kind of experiment: cell_activity; PAM TTTG; OT-1. Conditions: tags: NLS. As for the experimental part:
as §1, §2

B1: TTR.2 crRNA ; TTR OT.1 (ssRNA ; dsDNA)
RNA: AUGACUCAGAAAUGUGUCCCCAGUUGACACUAGAAGGGAUAUACAAAGUGGA
DNA 1: TTTGTAGAAGGGATATAGAAAGTATC
DNA 2: GATACTTTCTATATCCCTTCTACAAA
As for B1, the activity with hfCas12Max (v6.3) amounted to 1.55%; in the data set with xCas12i v6.1, 2.04%.
